This is an account of results in publication PMC2592702 (PLoS ONE, 2008).

What is called Kd is the free concentration of one partner at which half of the binding sites on the other are occupied at equilibrium, for simple one-to-one binding.

Residue numbers refer to the chain shown, from its start.

Experiment [1] concerns the target T1, POM2 epitope-mimicking peptide of the competition BIAcore experiment (Mus musculus).
T1 chain: QPHGGGW
Put plainly: SPR; […] (100–[…]), 1 h at room temperature; […]; HBS-EP. The note with it: both partners purified. (Surface plasmon resonance follows binding to a sensor surface in real time, without labels.)

The target of experiment [2] is T2, N-terminally truncated recombinant mouse PrP, residues 121–231 (rmPrP_(121-231)) (Mus musculus, UniProt P04925). As to the kind of experiment: ELISA. In general terms: In an ELISA, binding on a coated surface is turned into a signal by an enzyme label.
Experiment [3] deals with T2, N-terminally truncated recombinant …. Put plainly: SPR; […]; antibody 420 pM–110 nM in HBS-EP at 20 µl/min, 20 min dissociation, […]. The note with it: both partners purified.

T2 sequence (P04925 whole entry, looked up, the tested form may be a part): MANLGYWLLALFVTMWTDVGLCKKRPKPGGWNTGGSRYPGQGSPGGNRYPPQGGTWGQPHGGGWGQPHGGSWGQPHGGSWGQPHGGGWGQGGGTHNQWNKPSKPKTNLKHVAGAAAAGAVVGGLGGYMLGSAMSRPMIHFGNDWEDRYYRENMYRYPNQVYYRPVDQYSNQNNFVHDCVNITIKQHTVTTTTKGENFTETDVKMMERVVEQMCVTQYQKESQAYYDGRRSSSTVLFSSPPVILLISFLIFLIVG

B1: POM2 scFv, purified and refolded (scFv, V domains shown)
VH: EVKLQESGGEVVRPGTSVKVSCKASGYAFTNYLIEWVKQRPGQGLEWIGVINPGSGDTNYNEKFKGKATLTADKSSSTAYMQLNSLTSDDSAVYFCARSGVAAPYYYAMDYWGQGTSVTVSS
VL: DIVMTQSHKFMSTSVGDRVSITCKASQDVGTALAWYQQKPGQSPKLLIYWASTRHTGVPDRFTGSGSGTDFTLTISNVQSEDLSDYFCQQYSSYPTFGGGTKLEIK
In the case of B1, binding in experiment [1] was put at a Kd of 20 nM.

B2: POM11 monoclonal antibody (antibody, V domains shown)
VH: DVMLVESGPELEKPGASVRISCKASGYSFTGYNMDWVKQNNGKSLEWIGSIDPYYGGTSYNQSFKDKATLTVDKSSGTAYMQLKSLTSDDSAVYYCARGGVGPYYYALDYWGQGTSVTVSS
VL: B1 VL with M4L, T31S, L33V, A51S, S84A, Q89H, S92N, Y94S, G99R, I105L
As for B2, in experiment [2], the binding result is given as “no binding”.

B3: POM19 monoclonal antibody (antibody, V domains shown)
VH: EVKLMESGAELMKPGGSVKISCKATGYTFYSYWIEWIKRRPGHGLEWIGEILPGTGDTKYSEKFKGRATFTADPSSNTAYMQLSSLTSEDSAVYYCTRLIYYRYDDYALDYWGQGTSVTVSS
VL: DIVMTQSPAVMSASPGEKVTMTCSASSSISYMHWYQQKPGTSPKRWIFDTSKLASGVPARFSGSGSGTSYSPTISSMEAEDAATYFCHQRIIYPTFGGGTKLEMK
As to B3, the Kd in experiment [3] stood at 0.87 nM.
